Molecular target: T1, Aβ(1-42) (UniProt P05067 672-713)
T1 construct: domain: Aβ(1-42); Residue numbers count on Aβ, not on APP
Experiment: 125I-labeled GST-ABAD truncation binding to immobilized Aβ(1-42)

T1 sequence (P05067 672-713 limits assumed): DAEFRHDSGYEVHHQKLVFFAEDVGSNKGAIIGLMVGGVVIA

- binding result: no binding
B1: GST-ABAD(159-261) (other, UniProt Q99714 159-261, looked up)
chain: FEGQVGQAAYSASKGGIVGMTLPIARDLAPIGIRVMTIAPGLFGTPLLTSLPEKVCNFLASQVPFPSRLGDPAEYAHLVQAIIENPFLNGEVIRLDGAIRMQP
modifications: 125I-labeled
notes: not shown: glutathione S-transferase (GST) tag

From patent US20110171194A1 (TRUSTEES OF COLUMBIA UNIVERSITY IN THE CITY OF NEW YORK, published 2011)
